# Data published in paper PMC5122161, “Novel prokaryotic expression of thioredoxin-fused insulinoma associated protein tyrosine phosphatase 2 (IA-2), its characterization and immunodiagnostic application” (BMC Biotechnology, 2016).
# B1: intracellular domain of IA-2 fused to thioredoxin (TrxIA-2ic) (domain or fragment, human, UniProt Q16849 604-979, looked up)
# chain: ARQQDKERLAALGPEGAHGDTTFEYQDLCRQHMATKSLFNRAEGPPEPSRVSSVSSQFSDAAQASPSSHSSTPSWCEEPAQANMDISTGHMILAYMEDHLRNRDRLAKEWQALCAYQAEPNTCATAQGEGNIKKNRHPDFLPYDHARIKLKVESSPSRSDYINASPIIEHDPRMPAYIATQGPLSHTIADFWQMVWESGCTVIVMLTPLVEDGVKQCDRYWPDEGASLYHVYEVNLVSEHIWCEDFLVRSFYLKNVQTQETRTLTQFHFLSWPAEGTPASTRPLLDFRRKVNKCYRGRSCPIIVHCSDGAGRTGTYILIDMVLNRMAKGVKEIDIAATLEHVRDQRPGLVRSKDQFEFALTAVAEEVNAILKALPQ
# notes: insulinoma associated protein tyrosine phosphatase 2 (IA-2), human, intracellular domain IA-2ic, residues 604 to 979 of the 979-residue protein; codon-optimised synthetic gene adapted from GenBank L18983.1; Thioredoxin was not removed; also called thioredoxin-fused insulinoma associated protein tyrosine phosphatase 2; not shown: thioredoxin (E. coli), N-terminal, kept
# Target: the molecule itself
# Assay: SEC; Superdex 75 HR 10/30, PBS as mobile phase, room temperature, 1.0 mL/min, 50 ug/500 uL purified TrxIA-2ic injected; calibration with globular standards; eluted fractions identified by western blot with rabbit serum to IA-2
protein,measurement,value
B1,stoichiometry N,2
